Measured values taken from the RNAGym collection of RNA variant scans (doi:10.7554/elife.80360).

B1: HDV Ribozyme (parent)
chain: GGCCGGCAUGGUCCCAGCCUCCUCGCUGGCGCCGGCUGGGCAACAUUCCGAGGGGACCGUCCCCUCGGUAAUGGCGAAUGGGACCCA

Variants of: B1
Assay: self-cleavage, relative activity (ratio to wild type); higher = more cleavage; co-transcriptional

Variant	self-cleavage
C41G U79C	0.35
C3A C33U	0.166
G53A U60G	1.01
G25A A51C	0.213
U23G G82C	0.222
G59A C62A	0.678
G35A U65C	0.521
G25A G74U	0.0583
C41A U79G	0.858
C14U C44U	0.831
A42C G59U	0.424
G2U G76C	0.0279
C44G G76C	0.511
U23G G50C	0.767
C58G U65C	0.782
U20C G28C	0.0755
A16G U27C	0.675
G39A U79A	0.162
G11A C58G	0.415
C61A U79A	0.642
G2A U79A	0.0225

Variant	self-cleavage
A51G U69G	1.09
A45C A78G	0.178
G17U C44U	0.146
C22A U27G	0.151
G73C G81U	0.259
A42U G59A	0.845
U47G U72A	0.831
U27A C36U	0.538
G31C C86U	0.295
G50U C75G	0.277
C19G C63A	0.0936
C49G A56G	0.917
C15G C84G	0.222
C14U A70C	1.02
G10A G28A	0.0336
C36U A77C	0.145
A8C U65C	0.684
A16G U60A	1.25
A71C G74A	0.453
G2A U69C	0.332
U27C C41U	0.604

Variant	self-cleavage
C30U G34C	0.0923
C24A A70C	0.852
U46C C62A	0.623
G38U U69C	0.192
A16U G81U	0.554
G1A U46G	0.138
G2U C62G	0.136
C33U A70C	0.931
C18A U79G	0.0639
A42U G52A	0.612
C13G C86G	0.0978
G11C G31U	0.0482
C66A G74C	0.293
U9C G59A	1.05
G31A A51G	0.554
A71C C86U	0.665
C3A A45G	0.469
U47A A87G	0.96
C18U C66U	0.801
G17A A83U	0.565
C15G G53U	0.724

Variant	self-cleavage
C21A C86G	0.111
A51U G68U	0.9
A56U A71C	0.966
C32U A51C	0.541
G2A G68C	0.177
U69A G76C	0.906
U20A U27G	0
C15U G28U	0.227
C15A C64U	0.623
C75G	0.159
U47C A87C	0.95
C14A C86A	0.886
G25C G34C	0.0426
G59A A87C	0.974
C18A C33A	0.121
U12C G35U	0
G11U C58A	0.326
G5A G39C	0.119
C36G A70C	0
C61A G68A	1.08
U23A A77G	1.03
